Test results as given in the Immune Epitope Database (IEDB).

Each sequence was assayed against HLA-A*02:02 (assay: IEDB peptide-MHC binding, purified MHC/competitive/radioactivity; ≥ and ≤ were set here for values at or beyond the usual limits of such assays). Conditions: source organism: Vaccinia virus WR.
Work on GVMYAFTTPL yielded an IC50 of 34 nM.
Work on HIKTIAVSV yielded an IC50 of 3080 nM.
HILHAYCGI gave an IC50 of 123 nM.
Work on HLMSDNPKA yielded an IC50 of 57 nM.
HVLLPFYETL was tested, and the IC50 was 29 nM.
For IAGGVCYYL, the IC50 was 53 nM.
For IALALEQYGI, the IC50 was 980 nM.
IASILSLETV gave an IC50 of 234 nM.
IASSMKGENV gave an IC50 of 751 nM.
In the case of IAVITETIPI, the IC50 is reported as 515 nM.
For IAVSVYGAI, the IC50 was 1480 nM.
Sequence IIAVFDSKL has an IC50 of 44 nM.
Sequence IICEDAMYYA has an IC50 of 24 nM.
IIMAINVFT gave an IC50 of 39 nM.
IINSVSIILA was tested, and the IC50 was 719 nM.
In the case of IIPFIAYFVL, the IC50 is reported as 715 nM.
Sequence IISLFYTFAI has an IC50 of 108 nM.
With IISSKQYPA the IC50 was 164 nM.
With IISYIILFI the IC50 was 2.8 nM.
IISYIILFIL was tested, and the IC50 was 66 nM.
IITILQDIV was tested, and the IC50 was 827 nM.
IIYSKAGNIL was tested, and the IC50 was 8.5 nM.
ILATLNTLI gave an IC50 of 0.41 nM.
With ILATLNTLIT the IC50 was 7 nM.
With ILEYLYIMRV the IC50 was 74 nM.
For ILFILFFAYV, the IC50 was 132 nM.
ILISLINSLV gave an IC50 of 23 nM.
ILLILSCIFA gave an IC50 of 448 nM.
Sequence ILPDKIDGL has an IC50 of 1 nM.
ILQMREIIT was tested, and the IC50 was 4100 nM.
ILRNYLRLYI gave an IC50 of 0.39 nM.
In the case of ILSCIFAFI, the IC50 is reported as 0.79 nM.
With ILYYGANGST the IC50 was 341 nM.
IMAFILGII was tested, and the IC50 was 17 nM.
Sequence IMDKEQLLKI has an IC50 of 311 nM.

These sequences were tested against HLA-A*02:03 in the same assay as above. Conditions: source organism: Hepacivirus hominis.
For HLFTSMFSL, the IC50 was 105 nM.
Work on ILMTHFFSI yielded an IC50 of 1 nM.
Sequence ILMTHFFSIL has an IC50 of 69 nM.

Same assay, conditions: source organism: Influenza A virus
For FVFTLTVPS, the IC50 was 270 nM.
For GILGFVFTLT, the IC50 was 911 nM.

Same assay, conditions: source organism: Mammarenavirus brazilense
With HSLPRCWLV the IC50 was 147 nM.

Same assay, conditions: source organism: SARS-CoV1
FVDGVPFVV gave an IC50 of 86 nM.
FVFNGTSWFI gave an IC50 of 2.2 nM.
FVVFLLVTL was tested, and the IC50 was 1640 nM.
GALDVSASV gave an IC50 of 2.3 nM.
In the case of GLIAIVMVTI, the IC50 is reported as 19 nM.
Work on GLMWLSYFV yielded an IC50 of 0.82 nM.
For GLSDRVVFV, the IC50 was 1.1 nM.
Sequence GTSAAAYFV has an IC50 of 202 nM.
HAFLCLFLL was tested, and the IC50 was 46 nM.
IAACAMLLV was tested, and the IC50 was 387 nM.
Work on IIFWFSLEI yielded an IC50 of 87 nM.
ILASFSAST showed an IC50 of 5.3 nM.

Same assay, conditions: source organism: Vaccinia virus WR
In the case of FVDTMSIYI, the IC50 is reported as 370 nM.
FVDTMSIYIA showed an IC50 of 2390 nM.
In the case of FVKENERVNV, the IC50 is reported as 12 nM.
FVLALYSPPL showed an IC50 of 38 nM.
With FVMCLEAKT the IC50 was 1940 nM.
For FVNFVKDMI, the IC50 was 124 nM.
Sequence FVSTMPVET has an IC50 of 391 nM.
FVTDYVHEGV showed an IC50 of 1.7 nM.
FVYVSVMNFI gave an IC50 of 18 nM.
GIFVDTMSI showed an IC50 of 936 nM.
Work on GIYNCCESNI yielded an IC50 of 140 nM.
GLSSGFYFEI was tested, and the IC50 was 782 nM.
In the case of GLYIPGTSV, the IC50 is reported as 17 nM.
In the case of GMSIVCIVAA, the IC50 is reported as 231 nM.
For GTIILNKIV, the IC50 was 3400 nM.
Sequence GTSVIRSNI has an IC50 of 45 nM.
For GVCYYLLMHL, the IC50 was 64 nM.
For GVMYAFTTPL, the IC50 was 44 nM.
Work on HIKTIAVSV yielded an IC50 of 9.6 nM.
HILHAYCGI gave an IC50 of 66 nM.
HLMSDNPKA showed an IC50 of 279 nM.
Sequence HVLLPFYETL has an IC50 of 213 nM.
IAGGVCYYL showed an IC50 of 1680 nM.
With IALALEQYGI the IC50 was 4920 nM.
IASILSLETV showed an IC50 of 93 nM.
Sequence IASSMKGENV has an IC50 of 3240 nM.
With IAVITETIPI the IC50 was 32 nM.
Sequence IAVSVYGAI has an IC50 of 124 nM.
In the case of IIAVFDSKL, the IC50 is reported as 107 nM.
Sequence IICEDAMYYA has an IC50 of 108 nM.
For IIMAINVFT, the IC50 was 180 nM.
With IINSVSIILA the IC50 was 890 nM.
IIPFIAYFVL was tested, and the IC50 was 4730 nM.
With IISLFYTFAI the IC50 was 44 nM.
Work on IISSKQYPA yielded an IC50 of 612 nM.
IISYIILFI showed an IC50 of 59 nM.
Work on IISYIILFIL yielded an IC50 of 489 nM.
IITILQDIV showed an IC50 of 666 nM.
IIYSKAGNIL was tested, and the IC50 was 110 nM.
Work on ILATLNTLI yielded an IC50 of 0.23 nM.
ILATLNTLIT gave an IC50 of 12 nM.
In the case of ILEYLYIMRV, the IC50 is reported as 83 nM.
With ILFILFFAYV the IC50 was 366 nM.
ILISLINSLV gave an IC50 of 3.1 nM.
ILLILSCIFA gave an IC50 of 307 nM.
ILPDKIDGL showed an IC50 of 3.5 nM.
ILQMREIIT was tested, and the IC50 was 1340 nM.
With ILRNYLRLYI the IC50 was 0.9 nM.
For ILSCIFAFI, the IC50 was 3.1 nM.
For ILYYGANGST, the IC50 was 39 nM.
IMAFILGII showed an IC50 of 30 nM.
Sequence IMDKEQLLKI has an IC50 of 288 nM.

These sequences were tested against HLA-A*02:06 in the same assay as above. Conditions: source organism: Hepacivirus hominis.
HLFTSMFSL showed an IC50 of 627 nM.
In the case of ILMTHFFSI, the IC50 is reported as 4.7 nM.
In the case of ILMTHFFSIL, the IC50 is reported as 101 nM.

Same assay, conditions: source organism: Influenza A virus
FVFTLTVPS showed an IC50 of 18 nM.
With GILGFVFTLT the IC50 was 618 nM.

Same assay, conditions: source organism: Mammarenavirus brazilense
Sequence HSLPRCWLV has an IC50 of 323 nM.

Same assay, conditions: source organism: SARS-CoV1
For FVDGVPFVV, the IC50 was 0.91 nM.
Sequence FVFNGTSWFI has an IC50 of 0.44 nM.
FVVFLLVTL gave an IC50 of 38 nM.
With GALDVSASV the IC50 was 2.3 nM.
With GLIAIVMVTI the IC50 was 137 nM.
GLMWLSYFV gave an IC50 of 0.97 nM.
Work on GLSDRVVFV yielded an IC50 of 69 nM.
GTSAAAYFV showed an IC50 of 91 nM.
Sequence HAFLCLFLL has an IC50 of 1.2 nM.
IAACAMLLV gave an IC50 of 131 nM.
For IIFWFSLEI, the IC50 was 4.6 nM.
ILASFSAST was tested, and the IC50 was 457 nM.

Same assay, conditions: source organism: Vaccinia virus WR
With FVDTMSIYI the IC50 was 16 nM.
Sequence FVDTMSIYIA has an IC50 of 1100 nM.
In the case of FVKENERVNV, the IC50 is reported as 683 nM.
Work on FVLALYSPPL yielded an IC50 of 212 nM.
Sequence FVMCLEAKT has an IC50 of 979 nM.
FVNFVKDMI gave an IC50 of 229 nM.
FVSTMPVET was tested, and the IC50 was 1540 nM.
Work on FVTDYVHEGV yielded an IC50 of 11 nM.
With FVYVSVMNFI the IC50 was 7.5 nM.
GIFVDTMSI gave an IC50 of 1620 nM.
For GIYNCCESNI, the IC50 was 290 nM.
In the case of GLSSGFYFEI, the IC50 is reported as 1740 nM.
For GLYIPGTSV, the IC50 was 1740 nM.
For GMSIVCIVAA, the IC50 was 1220 nM.
With GTIILNKIV the IC50 was 1430 nM.
Sequence GTSVIRSNI has an IC50 of 1610 nM.
Sequence GVCYYLLMHL has an IC50 of 128 nM.
With GVMYAFTTPL the IC50 was 45 nM.
With HIKTIAVSV the IC50 was 1550 nM.
HILHAYCGI was tested, and the IC50 was 359 nM.
HLMSDNPKA was tested, and the IC50 was 523 nM.
HVLLPFYETL showed an IC50 of 115 nM.
IAGGVCYYL showed an IC50 of 1410 nM.
In the case of IALALEQYGI, the IC50 is reported as 1130 nM.
IASILSLETV gave an IC50 of 47 nM.
IASSMKGENV showed an IC50 of 311 nM.
Work on IAVITETIPI yielded an IC50 of 1 nM.
Work on IAVSVYGAI yielded an IC50 of 1100 nM.
For IIAVFDSKL, the IC50 was 99 nM.
IICEDAMYYA was tested, and the IC50 was 8.8 nM.
Sequence IIMAINVFT has an IC50 of 10 nM.
Work on IINSVSIILA yielded an IC50 of 957 nM.
Sequence IIPFIAYFVL has an IC50 of 852 nM.
IISLFYTFAI was tested, and the IC50 was 146 nM.
IISSKQYPA gave an IC50 of 1160 nM.
Work on IISYIILFI yielded an IC50 of 27 nM.
IISYIILFIL gave an IC50 of 3930 nM.
Sequence IITILQDIV has an IC50 of 658 nM.
IIYSKAGNIL gave an IC50 of 342 nM.
For ILATLNTLI, the IC50 was 40 nM.
Sequence ILATLNTLIT has an IC50 of 629 nM.
In the case of ILEYLYIMRV, the IC50 is reported as 134 nM.
With ILFILFFAYV the IC50 was 1210 nM.
ILISLINSLV gave an IC50 of 151 nM.
Work on ILLILSCIFA yielded an IC50 of 492 nM.
ILPDKIDGL gave an IC50 of 43 nM.
For ILQMREIIT, the IC50 was 1230 nM.
For ILRNYLRLYI, the IC50 was 65 nM.
Sequence ILSCIFAFI has an IC50 of 8.8 nM.
Work on ILYYGANGST yielded an IC50 of 1840 nM.
Sequence IMAFILGII has an IC50 of 175 nM.
Work on IMDKEQLLKI yielded an IC50 of 1340 nM.
